# Test results from patent US20150203579A1 (Regeneron, published 2015).
# T1: monkey PD-1 with mFc (monkey)
# T1 construct: also called monkey PD-1-mFc; monkey PD-1 dimer
# T1 chain: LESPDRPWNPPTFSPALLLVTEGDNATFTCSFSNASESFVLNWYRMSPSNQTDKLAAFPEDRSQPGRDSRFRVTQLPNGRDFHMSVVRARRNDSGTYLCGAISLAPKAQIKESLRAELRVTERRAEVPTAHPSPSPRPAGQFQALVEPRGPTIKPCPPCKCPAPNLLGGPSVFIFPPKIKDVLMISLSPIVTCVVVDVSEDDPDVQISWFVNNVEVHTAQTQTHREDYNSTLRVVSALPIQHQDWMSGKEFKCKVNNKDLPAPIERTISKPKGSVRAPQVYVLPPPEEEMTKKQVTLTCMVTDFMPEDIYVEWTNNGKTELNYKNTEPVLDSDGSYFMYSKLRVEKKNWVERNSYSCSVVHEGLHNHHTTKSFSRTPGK
# Columns and labels:
# [1] = target: T2, recombinant human PD-1 expressed with a C-terminal human IgG1 Fc tag (human); assay: SPR Biacore 3000: 100 nM hPD-1.hFc + 500 nM mAb to captured hPD-L1.mFc;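 note: inhibition study with anti-PD-1 mAbs, SPR responses tracked in real time and read at the close of each step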
# T2 construct: also called hPD-1-hFc; hPD1-hFc
# [2] = target: PD-1 chimera: extracellular domain of human PD-1 with trans-membrane and cytoplasmic domains of human CD300a, … (human, UniProt Q9UGN4 181-299, limits assumed); assay: cell-based or functional assay
# [3] = target: T3, full length human PD-1 on HEK293/hPD-1 cells (human, UniProt Q15116 25-288); assay: FACS dose response, HEK293/hPD-1 cells
# monkey PD-1 with mFc [4] = target: T1, monkey PD-1 with mFc; assay: SPR, captured mAb, 25 C;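 note: purified anti-PD-1 antibodies tested on Biacore 4000 or T200 instruments, rate constants obtained via 1:1 binding model fit, with KD as kd/ka and half-life as ln2/(60·kd)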
# monkey PD-1 with mFc [5] = target: T1, monkey PD-1 with mFc; assay: SPR, captured mAb, 37 C;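 note: Real-time Biacore surface plasmon resonance biosensor readout of PD-1 reagent binding to purified anti-PD-1 monoclonal antibodies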
# [6] = target: T3, full length human PD-1 on HEK293/hPD-1 …; assay: FACS, 100 nM mAb
# [7] = target: T4, dimeric biotinylated human PD-1 protein with a C-terminal human Fc tag (human, biotinylated (sites not given)); assay: competition ELISA: 200 pM biot-hPD-1-hFc to coated hPD-L1-mFc
# T4 construct: also called biot-hPD-1-hFc
# [8] = target: T5, recombinant human PD-L1 expressed with a C-terminal mouse IgG2a Fc tag (human); assay: SPR Biacore 3000: 500 nM mAb alone (no hPD-1.hFc) over captured hPD-L1.mFc surface, control
# T5 construct: also called hPD-L1-mFc; hPD-L1.mFc
# [9] = target: T6, recombinant human PD-1 dimer expressed with a C-terminal mouse IgG2a Fc tag (human); assay: competition ELISA: 1.5 nM hPD-1-mFc to coated hPD-L1-hFc
# T6 construct: also called hPD-1-mFc
# [10] = target: T3, full length human PD-1 on HEK293/hPD-1 …; assay: FACS, 100 nM mAb, HEK293/hPD-1 cells;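 note: antibodies incubated with cells for 15-30 min on ice, bound antibody detected through a secondary F(ab′)2 by flow cytometry, with parental HEK293 cells tested in parallel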
# [11] = target: T6, recombinant human PD-1 dimer expressed …; assay: competition ELISA: 1.5 nM hPD-1-mFc to coated hPD-L1-hFc; * below theoretical bottom 7.5E-10 M
# [12] = target: T6, recombinant human PD-1 dimer expressed …; assay: BLI Octet: 100 nM hPD-1-mFc + 500 nM mAb to captured hPD-L1-hFc
Binder,% Blocking [1] [%],binding of the mixture (RU) [1] [RU],Concentration (M) of Antibody at 150% activation [2] [M],Emax mean [%] @ 100 nM [2] [%],EC50 [3] [nM],Max Geom. Mean MFI @ 100 nM [3] [MFI],100 nM Monkey PD-1-mFc Bound (RU) (monkey PD-1 with mFc [4]),Kd (monkey PD-1 with mFc [4]) [nM],koff (monkey PD-1 with mFc [4]) [s⁻¹],kon (monkey PD-1 with mFc [4]) [M⁻¹ s⁻¹],t1/2 (monkey PD-1 with mFc [4]) [min],100 nM Monkey PD-1-mFc Bound (RU) (monkey PD-1 with mFc [5]),Kd (monkey PD-1 with mFc [5]) [nM],koff (monkey PD-1 with mFc [5]) [s⁻¹],kon (monkey PD-1 with mFc [5]) [M⁻¹ s⁻¹],t1/2 (monkey PD-1 with mFc [5]) [min],500 nM of anti-PD-1 monoclonal antibody (RU) [8] [RU],% blocking at 200 nM antibody [9] [%],IC50 [9] [nM],MFI [10] [MFI],also measured
"H4H9019P (antibody, V domains shown, fully human; H4H prefix (human IgG4 Fc)) VH: EVQLVESGGGVVRPGGSLRLSCAASGFTFDDYGMSWVRQVPGKGLEWVSGISWNDGKTVYAESVKGRFIISRDNAKNSLYLEMNSLRAEDTALYYCARDWQYLIERYFDYWGQGTLVTVSS VL: not shown",–,-1,1.79e-08,180,1.4,29200,31,1.97,–,–,129,36,3.17,–,–,45,-2,98,1.3,8610,–
"H4xH8992P (antibody, V domains shown, human IgG4 Fc with 2 or more amino acid changes (US20100331527)) VH: EVQLVESGGGLVQPGRSLRLSCVASGFALHDYAMHWVRQVPGKGLEWVSSISWNSGVIGYADSLKGRFTISRDNAKNSLYLQMNSLRAEDTALYYCAKGSGSYYVSWFDPWGQGTLVTVSS VL: not shown",–,2,–,178,–,–,122,1.24,–,–,46,86,4.38,–,–,8,3,93,1.3,17500,–
"H4xH9145P2 (antibody, V domains shown, human IgG4 Fc with 2 or more amino acid changes (US20100331527)) VH: QVQLVESGGGVVQPGRSLRLSCSASGFTFSAYAMHWVRQAPGKGLEWVAAISYGGSDKYYADSVKGRFTISRDNSKNTLYLQMNSLRTDDTAVYYCAKSAHWNFFFDYWGQGTLVTVSS VL: not shown",106,-6,2.4e-09,185,0.232,30600,84,2.08,0.00015,72400,77,94,4.04,0.000609,151000,19,-8,90,0.93,11600,ratio of MFI HEK293/hPD-1 to HEK293 parental cells [6]: 51.2; % blocking at 50 nM antibody [7]: 97%; IC50 [7]: 0.35 nM
"H4H9057P2 (antibody, V domains shown, fully human; H4H prefix (human IgG4 Fc)) VH: EVQLVESGGGLVQSGRSLRLSCAASGFTFDDYAMHWVRQPPGKGLEWVSGINWNRGRTGYADSVKGRFTISRDNAKNSLYLQMNDLRVEDTALYYCAKAEQWLDEGYFDYWGQGTLVTVSS VL: not shown",43,57,2.68e-08,212,0.236,20000,75,2.98,0.000303,102000,38,28,29.6,0.00477,161000,2.4,–,98,–,6500,IC50 [11]: 0.19 nM; ratio of MFI HEK293/hPD-1 to HEK293 parental cells [6]: 46.1
"H4xH9120P2 (antibody, V domains shown, human IgG4 Fc with 2 or more amino acid changes (US20100331527)) VH: QVQLVQSGAEVKRPGASVKVSCKASGYTFTSFYMYWVRQAPGQGLEWMGIINPSDGSTSNAQKFQGRVTMTRDTSTSTVYMELSSLRSEDTAVYYCARRVAGDIFDIWGQGTMVTVSS VL: not shown",100,0,1.1e-08,166,0.48,34100,52,1.91,0.000112,58400,104,46,6.06,0.000502,82900,23,1,98,1,9980,ratio of MFI HEK293/hPD-1 to HEK293 parental cells [6]: 91.9; % blocking at 50 nM antibody [7]: 96%; IC50 [7]: 0.39 nM

# Further lines, with some results ahead:
% Blocking [1] [%],binding of the mixture (RU) [1] [RU],Concentration (M) of Antibody at 150% activation [2] [M],Emax mean [%] @ 100 nM [2] [%],EC50 [3] [nM],Max Geom. Mean MFI @ 100 nM [3] [MFI],100 nM Monkey PD-1-mFc Bound (RU) (monkey PD-1 with mFc [4]),Kd (monkey PD-1 with mFc [4]) [nM],koff (monkey PD-1 with mFc [4]) [s⁻¹],kon (monkey PD-1 with mFc [4]) [M⁻¹ s⁻¹],t1/2 (monkey PD-1 with mFc [4]) [min],100 nM Monkey PD-1-mFc Bound (RU) (monkey PD-1 with mFc [5]),Kd (monkey PD-1 with mFc [5]) [nM],koff (monkey PD-1 with mFc [5]) [s⁻¹],kon (monkey PD-1 with mFc [5]) [M⁻¹ s⁻¹],t1/2 (monkey PD-1 with mFc [5]) [min],500 nM of anti-PD-1 monoclonal antibody (RU) [8] [RU],% blocking at 200 nM antibody [9] [%],IC50 [9] [nM],MFI [10] [MFI],Binder,also measured
102,-3,1.55e-09,193,0.105,32800,74,0.602,0.000143,238000,81,52,2.32,0.000794,342000,15,-3,97,1.1,9380,"H4xH9135P2 (antibody, V domains shown, human IgG4 Fc with 2 or more amino acid changes (US20100331527)) VH: EVQLVESGGSVVRPGGSLRLSCVVSGFTFEDYGLSWVRQIPGKGLEWVSGISWTGGNTGYADSVKGRFTISRDNAKNSLYLQMNSLRAEDTALYHCTRDRQWLMQWYFDYWGQGTLVTVSS VL: not shown",ratio of MFI HEK293/hPD-1 to HEK293 parental cells [6]: 82.2; % blocking at 50 nM antibody [7]: 96%; IC50 [7]: 0.15 nM
100,0,–,217,–,–,126,0.21,–,–,100,83,0.7,–,–,23,1,88,1.3,28900,"H4xH8999P (antibody, V domains shown, human IgG4 Fc with 2 or more amino acid changes (US20100331527)) VH: QLQLQESGPGLVQPSETLSLTCTVSGDSISSTAYHWDWIRQPPGKGLEWIGTITYNGNTYFNPSLKSRVTISVDTSKNQFSLKLLSMTAAETAVFYCARHLGYNSDFFPFDFWGQGTLVTVSS VL: not shown",–
105,-5,–,–,–,–,64,1.57,0.000124,78700,94,60,4.36,0.000816,187000,14,-5,98,–,9080,"H4xH9128P2 (antibody, V domains shown, human IgG4 Fc with 2 or more amino acid changes (US20100331527)) VH: QVQLQESGPGLVKPSETLSLTCTVSGGSISSYHWNWIRQSPGKGLEWIGYIYYIGSTDYNPSLESRVTISVDTSKNQFSLKLSSVTAADTAVYYCARVPVGATGASDVWGQGTMVTVSS VL: not shown",IC50 [11]: 0.64 nM; % blocking at 50 nM antibody [7]: 97%; IC50 [7]: 0.19 nM
–,–,4.09e-08,170,1.37,16400,–,–,–,–,–,–,–,–,–,–,–,95,1.1,19100,"H2aM7794N (antibody, V domains shown, human variable regions, mouse IgG2a Fc; also called H2M7794N) VH: QLQLQESGPDLVKPSDTLSLTCTVSDDSISSTTYYWAWIRQPPGKGLEWIGSMSYNGNNYYNPSLKSRVAISAGTSQKQFSLKLTSVTAADTAVYHCARHLGYNGNWYPFDFWGQGILVTVSS VL: not shown",ratio of MFI HEK293/hPD-1 to HEK293 parental cells [6]: 71; % blocking at 50 nM antibody [7]: 99%; IC50 [7]: 0.23 nM; % Blocking [12]: 114%; binding of the mixture (nm) [12]: -0.01 nm
